Columns and labels:
Type in all cases: in vivo, mouse
EAE-induced mice = assay: Immunohistochemistry of spinal cord for CD3, B220, CD11b infiltrates; conditions: EAE day 18; vs vehicle
Protocol: Spinal cords were isolated and post-fixed with 4% PFA overnight at 4° C., washed 3× with PBS and soaked in 30% sucrose in PBS for 48 h. Tissues were then embedded in Optimal Cutting Temperature (OCT) compound. Frozen sections of spinal cords were cut at 10-30 μm with a cryostat, mounted on gelatinized slides, dried for 2 h and stored at −80° C. Sections were then re-hydrated in PBS for 5 min and permeabilized with PBST (0.3% Triton X-100 in PBS) for 5 min. The tissues were then blocked (PBS, 0.3% Triton X-100, 3% FBS) for 1 h at room temperature and incubated with the following primary antibodies overnight at 4° C. in a humidified chamber: anti-CD3 (145-2C11, BioLegend); CD11b (M1/70, BioLegend); B220 (RA3-6B2, BioLegend), DAPI (MMS-435P, Sigma), Fibrinogen (D9542, Innovative Research).

[1] = sRGMc level in sera of treated mice by ELISA
Protocol: Blood collected from the saphenous veins of mice induced with EAE at 0, 5, 10, 18 and 30 days in Microvette® CB300 capillary tubes (Starstedt) was spun down at 2000 rcf for 10 min and stored at −80° C. sRGMa and sRGMc in the sera were detected using ELISA kits for sRGMa (MRGMAO, R&D) and sRGMc (MRGMCO, R&D) according to manufacturer's instructions.
To ensure that over-expression of sRGMc was efficient, sera from 3 RGMc-treated mice were collected and compared to 3 vehicle-treated mice at 24 h post-treatment by ELISA. […] The mice were then observed and scored twice daily at 12 h intervals for 18 days. […] Whether intra-peritoneal (i.p) injections of RGMc could overcome the transient effects observed with intravenous administration of this protein was explored. […] Next the levels of RGMc in the sera of sham-treated animals and mice induced with EAE at day 10 as well as in EAE animals (day 10) that were injected with RGMc were analyzed. […] Thus, EAE reduced RGMc levels and over-expression of sRGMc in EAE-induced mice is beneficial in reducing the incidence and the severity as well as delaying the onset of disease.

[2] = tested on: splenocytes and lymph node cells of EAE-induced mice; assay: Flow cytometry of splenocytes and lymph node cells of treated EAE mice
Protocol: Mice were euthanized at day 10 post-induction of EAE. Freshly isolated spleens and draining caudal lymph nodes (LN) were pressed using a syringe plunger through a 70 μm cell strainers and washed twice using 2 mL of 2% FBS in complete RPMI-1640 medium (Invitrogen) supplemented with […], L-glutamine, p/s, and non-essential amino acids. Single-cell suspensions were lysed with 7 mL of red blood cell (RBC) lysing buffer (Life Technologies) and centrifuged at 700 rcf for 5 mins. After washing three times with 2% RPMI-1640 medium, cells were counted and cultured as described below or were subjected to cell surface staining.
The expression of cell-surface markers and cytokine expression on splenocytes and LN cells were characterized by flow cytometry. For analysis of naïve cells, 5×10^5 RBC depleted splenocytes and LN cells were plated in 96-well V-bottom plates (Starstedt) and blocked with 50 μl of 1% mouse IgG in 2% FBS PBS supplemented with azide (PFN3) for 20 min at 4° C. Cells were then stained with the following primary conjugated antibodies from BioLegend for 30 min on ice: CD5 (53-7.3), CD3 (145-2C11), CD4 (GK1.5), CD8 (53-6.7), CD19 (6D5), CD11b (M1/70), CD11c (N418), CD80 (16-10A1), CD86 (GL-1), CD44 (IM7), MHCII (M5/114.15.12), CD62L (MEL-14), ICAM-1/CD54 (3E2), IL-17A (TC11-18H10.41), IFN-γ (XMG1.2). All antibodies were re-suspended in PFN3. When required, cells were washed twice with 100 μl of PFN3 and stained with secondary SA-APC, SA-APC-Cy7, SA-PeCy7, or SA-Percp-Cy5.5 for 30 min on ice. Cells were then washed twice with PFN3 and re-suspended in a PFN3 solution containing propidium iodide (PI) before proceeding to FACS analysis.
To examine intracellular cytokine production, 0.5×10^6 RBC-depleted splenocytes and LN cells were plated on 96-well flat bottom plates (BD Biosciences) in 10% FBS in complete RPMI-1640 in the presence of 0.5 μg/mL phorbol 12-myrisate 13-acetate (PMA), 0.5 μg/mL Ionomycin, and Golgistop (BD Biosciences) for 4 h. Cells were subsequently washed in PBS and stained with Near-Infrared Live Dead (Life Technologies) as described in the manufacturer's protocol. Cells were then washed twice in PFN3 and stained for cell surface markers as described previously. Cells were then fixed with 100 μl of Cytofix/Cytoperm solution as per manufacturer's protocol. For intracellular staining, cells were then stained with anti-IL-17A, and anti-IFN-γ for 30 min on ice, washed twice, and re-suspended in PFN3 before proceeding to FACS acquisition. Nonspecific background staining was determined by using fluorochrome-matched isotype antibodies and fluorescence minus one control. […] For each experiment, at least 100,000 live events were acquired and analyzed using Flowjo software (Tree Star Inc.).

B1: sRGMc: truncated form of RGMc with the GPI anchor sequence removed, released as a soluble protein (SEQ ID NOs: 1 and 3) (protein, listed as Homo sapiens)
chain: CKILRCNAEYVSSTLSLRGGGSSGALRGGGGGGRGGGVGSGGLCRALRSYALCTRRTARTCRGDLAFHSAVHGIEDLMIQHNCSRQGPTAPPPPRGPALPGAGSGLPAPDPCDYEGRFSRLHGRPPGFLHCASFGDPHVRSFHHHFHTCRVQGAWPLLDNDFLFVQATSSPMALGANATATRKLTIIFKNMQECIDQKVYQAEVDNLPVAFEDGSINGGDRPGGSSLSIQTANPGNHVEIQAAYIGTTIIIRQTAGQLSFSIKVAEDVAMAFSAEQDLQLCVGGCPPSQRLSRSERNRRGAITIDTARRLCKEGLPVEDAYFHSCVFDVLISGDPNFTVAAQAALEDARAFLPDLEKLH
infiltration of B220+ cells into cervical spinal cords (EAE-induced mice): significantly reduced | infiltration of CD3+ cells into cervical spinal cords (EAE-induced mice): significantly reduced | infiltration of Cd11b+ cells into cervical spinal cords (EAE-induced mice): significantly reduced | increase in sRGMc levels in sera compared to vehicle-treated animals ([1]; 24 h post-treatment, ELISA, 3 mice per group): 3 fold | RGMc levels in sera of EAE mice after RGMc injection ([1]; EAE day 10, compared to sham-treated animals): restored | stability of sRGMc treatment in serum ([1]; ELISA, FIG. 4F): stable for 24 h post treatment | expression profile of IL-17 and IFN-γ secreted by CD4+ T cells ([2]; PMA and ionomycin stimulated, EAE mice day 10): no effect | expression of adhesion markers (ICAM-1 and CD62L) on CD4+ and CD8+ T cells and B cells ([2]; naive splenocytes and lymph node cells, vs vehicle): does not affect | distribution of effector cells (CD3+, CD8+, CD4+ T cells) ([2]; splenocytes day 10, vs vehicle): does not alter | distributions and activation of dendritic cells (CD11c+) and B cells (MHC II, CD80+/CD86+) ([2]; splenocytes day 10, vs vehicle): unaltered
